According to the DeepSol protein solubility set:

Assay: soluble on expression in E. coli; label from the status in PepcDB or PDB records

Row | Sequence | soluble on expression in E. coli
1 | MGSDKIHHHHHHMKFVIRDLNTKKVMKNAYRITKTKYETSLRVRVPGGLIDPESLAVVSKIASEYGNGQVHITTRQGFEILGINMEDMEEINKIIQPVIEKMNINQSEKNAGYPAAGTRNIAACIGNKVCPKAQYNTTEFAKRIEKAIFPNDLHFKVALTGCPNDCIKARMNDFGIIGMALPIYEKDRCVNCGACVKKCSKISVGALKTENNKVVRDKDKCIGCGECVLNCPTNAWTRDEKKYYRLAIMGRTGKKNPRLAEDFLLWVDEDSIIKIILNTYRYVEKYIDKDAPGGKEHIGYIIDRTGFMEFKKWALEGVELPEITKMYENIYWSGIKYL | not soluble
2 | MGSDKIHHHHHHMKICLVSSMHPPHDKRVFDKEAVTLSSNGYKVLHLCPGTASDSGVFNDVEIVPYCRPSGIKGRLLQIFQLYRMANKINADVYHCNEVDSWFVGVLLKILRKKLCVFDVHEHYPSTFAESRFPKWIQPAVSSLVKLIFRLFLPFTDRLVLAKKSVSDDFPNSDSKKVLVRNFTPLSGINFTGVREVVPKGSDVTLIHLGLFGKIRGWPQTLEALKTMKQKNVRLVVIGDFNDGSRADFDSVVSAYGLNDRVVVYDWMPFEDAFKHLMQAHIGLVVFQPGILNHVYAMPHKMFDYMAAGMAVICPEFAMEVAPFVKEAKCGLLVDTANPADLAKKLDELVSSPDLIHEMGVRAQKAVQQHYNWEAEAKHLIQMYKELEELQ | not soluble
3 | MGSDKIHHHHHHMKIGFLGFGKSNRSLLKYLLNHQEAKFFVSEAKTLDGETKKFLEEHSVEYEEGGHTEKLLDCDVVYVSPGIKPDTSMIELLSSRGVKLSTELQFFLDNVDPKKVVGITGTDGKSTATALMYHVLSGRGFKTFLGGNFGTPAVEALEGEYDYYVLEMSSFQLFWSERPYLSNFLVLNISEDHLDWHSSFKEYVDSKLKPAFLQTEGDLFVYNKHIERLRNLEGVRSRKIPFWTDENFATEKELIVRGKKYTLPGNYPYQMRENILAVSVLYMEMFNELESFLELLRDFKPLPHRMEYLGQIDGRHFYNDSKATSTHAVLGALSNFDKVVLIMCGIGKKENYSLFVEKASPKLKHLIMFGEISKELAPFVGKIPHSIVENMEEAFEKAMEVSEKGDVILLSPGGASFDMYENYAKRGEHFREIFKRHGGDEV | not soluble
4 | MGSDKIHHHHHHMKIKVALLDKDKEYLDRLTGVFNTKYADKLEVYSFTDEKNAIESVKEYRIDVLIAEEDFNIDKSEFKRNCGLAYFTGTPGIELIKDEIAICKYQRVDVIFKQILGVYSDMAANVATISGENDKSSVVIFTSPCGGVGTSTVAAACAIAHANMGKKVFYLNIEQCGTTDVFFQAEGNATMSDVIYSLKSRKANLLLKLESCIKQSQEGVSYFSSTKVALDILEISYADIDTLIGNIQGMDNYDEIIVDLPFSLEIEKLKLLSKAWRIIVVNDGSQLSNYKFMRAYESVVLLEQNDDINIIRNMNMIYNKFSNKNSEMLSNISIKTIGGAPRYEHATVRQIIEALTKMEFFEEILQ | not soluble
5 | MGSDKIHHHHHHMKIKVKLPDGKEKEYDRGITPAEIAKELGIKKAIGAVVNGELWDLKRPIENDCELRLVTLEDPEAPEFYRHTMAHILAQAVMRLYGKENVKLGIGPTIENGFYYDFDIKNGRLTEEDLPKIEQEMKKIIKENLPIERKEISKEEARELFRDQPYKLELIEEIEGNRVTIYRQGEFVDLCRGPHLPSTGIVKHFKLLSVSGAYWRGSEKNPMLTRVYGTAFAKKEDLDNYLKFLEEAQRRDHRKLGPQLELFMLNTEYAPGMPFFLPKGVVVLNELMKFSRELHRERGYQEIFTPLIMNEQLWKISGHWDHYAENMYFIEKDEERYAVKPMNCPGHILVYKSRTVSYRDLPLRFFEFGRVHRYERSGVLHGLMRVRSFTQDDAHIFCTPDQIEEEILGVLDLINTIYSQFGFTYRVELSTMPEDHMGDEAIWEKATTALKNALERAGLSYKVNEGEGAFYGPKIDFHIRDSIGREWQCATIQLDFMMPEKFNVTYIGPDNKEHRAVMIHRAIYGSLERFFGILIEHFAGAFPTWLAPIQVAVIPISEKHNDGAEKVARRISQEGFRVFFDNRRETLGYRIRQAQTQKIPYMIIIGDKELESGKISVRTRTGKEIKDVDPEHFVETLRNEVLSRKLELSMEG | not soluble
6 | MGSDKIHHHHHHMKILKHSLFTSVVNKMRLIHHQDDTAKLSLLITGMSGTGKSTLVDWYEQQYPVEYTPEVTLKRVICVHLTKPNSPINLLEQIINAMGTSYIPRRRTLNKLLHQLKCLLEACQTELIILDEAQECLPDSDGIKAQSMAKAFVAIIDKCNVPLILIGTPALKRLLKLKYLADVKNISREEQLSRRFIAPCQLNIFLSHCDAWVNVINFFGKTKGLRNLNTKDADILDRLYVATYGRIGLIKKLFAFTQLNETSDLQATFYDAYELVDTTGEANPFNQQDYTYAAIIKKAENIERIYFTHNKTHPSEKRVADRLFH | not soluble
7 | MGSDKIHHHHHHMKILPVISTKGGEGKSTQAANLAGFFADAGLKTLLIDGDYSQPTASSIYALEHEAPFGLFELLMQTTDLNQPESIISRTAIPNLDLIISNDPDDRLPTAMLHAPDGRMRLKNILQHQSFQSYDVIMIDSKGAAGVMVELVVLAATENVVGVIKPILPDVREFMRGTVRLMSRLLALQAYGIQIPDIKILANCVENTSLDRKTLEELGNIVSEKKYLQSESINISILETKIDQLEVYKRGHAFGQPVHRLEYVTDRKSAAAAVTMHSLACELFPHWKDKFDSVLRNQTGAGEVASV | not soluble
8 | MGSDKIHHHHHHMKILVGSPVSLEEFETIDLFISWLDVIPDNARFSIVGTSKFFIIGKNGREWKKGYEFGIVDADINIFVVGGDLALYPEVFYIAKENGAKLVVGFCEIQNFIDFNFVKAKFWAHTQETSLASIVLLNFLGKVHNNIYFPLEKTKNQTGVVAEGVAPVFLELKKNFFSSEEAEDV | not soluble
9 | MGSDKIHHHHHHMKKIQIVDDSQSNIRKLENLLNTHFLVTVARTGEEAVRMAKENVPDLILLEVALPDMDGFETCRRLKAQVESAKIPVIFVSSLKEKEAVIKGFEVGGQDYIIKPFEARELVLRMKSLLKQESSRKRLEQHVKVLEEQNEKLKGKIQKVDRLSRVDFLTNLMNRRDMQEKIRAEINRSIRHGRSFTLAIVDIDFFKNINDTYGHDCGDHVLKHFVSTLKNSVRSSDYVSRWGGEEFLLLFPETKLEEGKRACEKIRQKINESPVIYKGMSISITATFGISEYRPSVRIEELIKAADDALYKGKKTGKNQVVVQSM | not soluble
10 | MGSDKIHHHHHHMKKIRFAAIGLAHNHIYDMCQQLIDAGAELAGVFESDSDNRAKFTSLFPSVPFAASAEQLITDASIDLIACAVIPCDRAELALRTLDAGKDFFTAKPPLTTLEQLDAVQRRVAETGRKFAVYFNERINVDSALFAGELVQRGEIGRVIQTMGVGPHRERGARPDWFYQKRQYGGILCDIGIHQIEQFLYFTGNTNARVVTSQTANYHHPHHPEFEDFGDAMLLGDNGATGYFRCDWFTPDGLSVWGDGRLTILGTEGYIEIRKYVDLTRGESNVVYLVNGKGEQRFTPAGSVERAFFPDFLRDCRERTENAMSQSHIFKATELSILAQQAANKIA | not soluble
11 | MGSDKIHHHHHHMKKKLKIGISACVMGEPVRFDRGHKKSGFCMEQLAEFAEFKPVCPEMAIGLPVPRPTIRQIVRDNIITVSRPDGSGDVTQALKEFGAKAALNYQELAGFVFCAKSPSCGMERVKVYHHHGKGSESTGVGIFAEQVMKANPLLPCEENGRLNDPIIRENFTTRIFTYQKWLDLKAEGLTRHKLIQFHSAHKYLVMSHHVESYRELGRLLGRADIGLEEQSERYISGLMQALKHKASRRSHTNTLQHLQGYFKRQLDEHKRRELTQEIAAYREGLSPLLVPLTLIKHYLIEFPNEYLLQQAYLNPHPKELRLRYGY | not soluble
12 | MGSDKIHHHHHHMKKQFEMYFSLGTLIGYMHDNKLIATGGVFPFKDSFSTIGMLIVHPNFQGQGIGRTLLNHCLAHTHPKQPIALIATKAGEPLYTSCGFQTVTTIHRFEKQTTKTHITHTQQVKEKDIISLISLDQSTTGADRSLLYSLLLPRTSHSFKIERHNCIEAFSLCIQKGNILCINPLIAKREEDAIQLLQKICECWNGTVRLDVPHSQFSFRKLLQTENFQETLLSPLMIKNGSQLPGNRNMLFAMIDTALC | not soluble
